Values of other authors, collected in patent publication US20100143424A1, “CASEIN NANOPARTICLE” (FUJIFILM CORPORATION, priority 2008, published 2010).

Settings: casein derived from milk, Wako Pure Chemical Industries

casein
isoelectric point: 4.3
